Test results taken from the supplement of paper PMC10567573.

Assay: protein stability index of a GFP-peptide fusion (GPS, HEK-293T) (PSI 1-6); higher = more stable
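Note: lentivirally expressed fusions sorted by FACS into six bins by GFP to DsRed ratio, PSI derived from sequencing read proportions per bin multiplied by bin number.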

MAGCRGSLCCCCRWCCCCGERETR
protein stability index (parent: IOH52910_1, c terminus: a fixed tail appended): 1.87

IVRLHDSISEEGFHYLVFDLVTGG
protein stability index (parent: IOH54032_13, c terminus: a fixed tail appended): 2.65

AGSRQALSFEVPPCNYDPEKWIQ [MGC16075 WT]
protein stability index (parent: IOH57016_8, c terminus: native): 1.84

FHGTRQYKFDPKTKRILTLQKANS
protein stability index (parent: IOH59103_74, c terminus: a fixed tail appended): 1.72

QEGLLDRCVSFQARFAEKEELMLV
protein stability index (parent: IOH53646_21, c terminus: a fixed tail appended): 1.78

FATASAAVPVSTSKPSSDLLDLQP
protein stability index (parent: IOH52952_56, c terminus: a fixed tail appended): 3.71

KMKTRELHRESSNFDSIYICPSTF
protein stability index (parent: IOH53646_93, c terminus: a fixed tail appended): 2.14

EQVFSLGDGVSGGFFGIRDSSFL [ZBED1 WT]
protein stability index (parent: IOH55626_115, c terminus: native): 3.38

FGGSFMAPSPSPVTPAQNNLLQPN
protein stability index (parent: IOH52952_113, c terminus: a fixed tail appended): 1.96

LNFQIEHHLFPTMPRHNYHKVAPL [FADS1 WT]
protein stability index (parent: IOH55275_64, c terminus: a fixed tail appended): 2.38

DLMETTQYMNEGELRVLADTYDSV
protein stability index (parent: IOH53646_26, c terminus: a fixed tail appended): 2.05

FSTDAFSSPPQGASPVPESSLTAD
protein stability index (parent: IOH52952_99, c terminus: a fixed tail appended): 3.2

QYMNEGELRVLADTYDSVYLHPNS
protein stability index (parent: IOH53646_27, c terminus: a fixed tail appended): 1.87

LPQETNLTLKVCKPQAPQKLDPTL
protein stability index (parent: IOH57371_9, c terminus: a fixed tail appended): 3.74

FVRGDHRDNSPFDGPGGNLAHAFQ
protein stability index (parent: IOH59103_28, c terminus: a fixed tail appended): 1.98

VGEIVGIITRHNLTYEFLQARLRQ
protein stability index (parent: IOH52910_141, c terminus: a fixed tail appended): 2.41

RGRHEQSPTSRPRKVSSLPPRSC
protein stability index (parent: IOH58746_22, c terminus: native): 2.58

ILRSQLVTLLVRGVCYSESQSSAS
protein stability index (parent: IOH52910_125, c terminus: a fixed tail appended): 2.67

PRGRAHLLPNPYQQDFLGLPEELR
protein stability index (parent: IOH58746_12, c terminus: a fixed tail appended): 3.93

ISKKFGDMSYSIRHSISMPAMRNS [TPD52L1 WT]
protein stability index (parent: IOH59709_21, c terminus: a fixed tail appended): 2.22

KAVEEELDAEDRPAWNSKLQYILA
protein stability index (parent: IOH55656_9, c terminus: a fixed tail appended): 2.81

WLYCYDPVMDVWARKQDMNTKRAI
protein stability index (parent: IOH52486_82, c terminus: a fixed tail appended): 1.93

FTQSGPIVSRATGRCLEVEMSKDA [GALNT9 WT]
protein stability index (parent: IOH59749_32, c terminus: a fixed tail appended): 2.02

HMFTPKLDKMLDPQVWREAATQVF
protein stability index (parent: IOH55656_48, c terminus: a fixed tail appended): 1.92

VEKVLRRWVDEEWPKRERGDPSRH [EDARADD WT]
protein stability index (parent: IOH59721_31, c terminus: a fixed tail appended): 2.77

YSSGEFSSGRKWGDDAPKEEVDTG
protein stability index (parent: IOH53018_58, c terminus: a fixed tail appended): 2.34

RQHHHQSSFPGSLPQETNLTLKVC
protein stability index (parent: IOH57371_7, c terminus: a fixed tail appended): 2.86

FAAPSPATTASPAKVDSSGVIDLF
protein stability index (parent: IOH52952_104, c terminus: a fixed tail appended): 2.35

YTPDLPRADVDHAIEKAFQLWSNV
protein stability index (parent: IOH59103_21, c terminus: a fixed tail appended): 1.83

IRLVDDAFGKICHMVSDGSWVVRV
protein stability index (parent: IOH53018_47, c terminus: a fixed tail appended): 3.03

ITQSWQVSVRVQPRGRAHLLPNPY
protein stability index (parent: IOH58746_10, c terminus: a fixed tail appended): 1.87

YQSFVQFLQYYYQSGCLYRLRALG [TMEM120A WT]
protein stability index (parent: IOH55078_39, c terminus: a fixed tail appended): 2.71

FCASTRLPPTPLLLFPEEEATNGR
protein stability index (parent: IOH56238_25, c terminus: a fixed tail appended): 2.88

WIHCFEGVTAIIFCVALSDYDLVL [GNAI1 WT]
protein stability index (parent: IOH55111_36, c terminus: a fixed tail appended): 2.97

LLKHPNIVRLHDSISEEGFHYLVF
protein stability index (parent: IOH54032_12, c terminus: a fixed tail appended): 2.28

FQSISLRKIQFNFPYFRSDRDKRD
protein stability index (parent: IOH52910_37, c terminus: a fixed tail appended): 1.87

TIIEPAGESDNPLRFTSGLVVALD
protein stability index (parent: IOH53018_138, c terminus: a fixed tail appended): 2.83

EGLLRFSSWPFSIQDVVQPLTLQV
protein stability index (parent: IOH56238_29, c terminus: a fixed tail appended): 2.09

FVAENSSLHPESGQENDATSPHFS [CD69 WT]
protein stability index (parent: IOH57037_2, c terminus: a fixed tail appended): 2.9

YHIYVALEEEIERNKESPVFAPVY [HMOX1 WT]
protein stability index (parent: IOH54938_10, c terminus: a fixed tail appended): 2.02

ETIQGFWLLTKIDHWNNEKERILL [TPRG1 WT]
protein stability index (parent: IOH59452_16, c terminus: a fixed tail appended): 2.09

MELLRTITYQPAASTKMCEQALGK
protein stability index (parent: IOH57150_1, c terminus: a fixed tail appended): 2.16

ACAQLATGAACRLVEAVLSGEVLN
protein stability index (parent: IOH53646_97, c terminus: a fixed tail appended): 2.94

NETGYLSSVECYNLETNEWRYVSS
protein stability index (parent: IOH52486_73, c terminus: a fixed tail appended): 2.24

VKGCSMYVALFPCNECAKLIIQAG [DCTD WT]
protein stability index (parent: IOH54732_19, c terminus: a fixed tail appended): 2.63

YAELGQCSVFPATDAPEQFISQVT
protein stability index (parent: IOH57150_92, c terminus: a fixed tail appended): 2.17

FAQPMMRPPFGAAAVPGTQLSPSP
protein stability index (parent: IOH52952_144, c terminus: a fixed tail appended): 3.08

YVHHQALLDVKNIAHQNKFGEDMP
protein stability index (parent: IOH53646_199, c terminus: a fixed tail appended): 2

SERPLEDLRLRLDHLGWVARGTGS [RTN2 WT]
protein stability index (parent: IOH53506_23, c terminus: a fixed tail appended): 2.32

AKQIMEETYKMEFMYSGVENKQVV
protein stability index (parent: IOH53018_117, c terminus: a fixed tail appended): 1.69

MFFKDRFYMRTNPFYPEVELNFIS
protein stability index (parent: IOH59103_50, c terminus: a fixed tail appended): 2.27

CAVLDDSIYLVGGYSWSMGAYKSS
protein stability index (parent: IOH52486_95, c terminus: a fixed tail appended): 2.2

TGLVGLFVDFFVRLFTQLKFGVVQ
protein stability index (parent: IOH52910_16, c terminus: a fixed tail appended): 2.3
